Measurements reported in US20210087281A1 (AGOMAB THERAPEUTICS, published 2021).

Assays:
[1] = target: T1, human MET-Fc (R&D Systems) (human, UniProt P08581 25-932); test: competition ELISA, hMET-Fc in solid phase, competitor 0.3 nM biotinylated hHGF
T1 construct: extracellular domain; bought chimeric protein; also called hMET; not shown: Fc portion of human IgG1
Procedure, shortened: (§1)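 N-terminally biotinylated HGF (NHS-LC-biotin); mAbs titrated 0-120 nM against coated MET-Fc; read-out IC₅₀ (50% competition) and IMAX (max % competition at saturation).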

[2] = target: T2, native human MET on living cells (human, UniProt P08581 25-1390); test: cell-based or functional assay
[3] = target: T3, native mouse MET on living cells (mouse, UniProt P16056 25-1379); test: cell-based or functional assay
[4] = target: T2, native human MET on living cells; test: flow cytometry, A549 cells
Procedure, shortened: (§2)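 Chimeric anti-MET antibodies were incubated with living cells expressing native MET, human on A549 and mouse on MLP29. Binding was detected by flow cytometry with phycoerythrin-conjugated anti-human IgG1. Commercial anti-MET antibodies with matching PE secondaries served as positive controls.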

[5] = target: T3, native mouse MET on living cells; test: flow cytometry, MLP29 cells
Procedure, shortened: as §2

[6] = target: T4, mouse MET-Fc (R&D Systems) (mouse, UniProt P16056 25-929, limits assumed); test: competition ELISA, mMET-Fc in solid phase, competitor 0.3 nM biotinylated mHGF
T4 construct: bought chimeric protein; also called mMET; not shown: Fc part
Procedure, shortened: as §1

[7] = target: human MET ECD mutant E (mutations 2, 3, 4) (human) (UniProt P08581); test: ELISA, MET ECD in solid phase, mAb 0-50 nM
[8] = target: human MET ECD mutant D (mutations 1, 2) (human) (UniProt P08581); test: ELISA, MET ECD in solid phase, mAb 0-50 nM
[9] = target: human MET ECD mutant A (mutations 1, 2, 3) (human) (UniProt P08581); test: ELISA, MET ECD in solid phase, mAb 0-50 nM
[10] = target: human MET ECD mutant H (mutations 2, 4) (human) (UniProt P08581); test: ELISA, MET ECD in solid phase, mAb 0-50 nM
human MET ECD [11] = target: T5, human MET ECD (human, UniProt P08581 25-932); test: ELISA, MET ECD in solid phase, mAb 0-50 nM
T5 construct: range 1-932; recombinant ECD made by the applicants; the stated range begins at residue 1, so it includes the signal peptide of the entry; also called hMET; hMET ECD
Description: Using human MET as a template, we mutagenized each of these residues in different permutations, generating a series of MET mutants that are fully human except for specific residues, which are llama. Next, we tested the affinity of selected SEMA-binding mAbs (71D6, 71C3, 71D4, 71A3, 71G2) and PSI-binding mAbs (76H10 and 71G3) for these MET mutants by ELISA. To this end, the various MET proteins were immobilized in solid phase (100 ng/well in a 96-well plate) and then exposed to increasing concentrations of antibodies (0-50 nM) solution. […] Wild-type human MET was used as positive control.
TABLE 18 The epitopes of MET responsible for agonistic antibody binding represent residues conserved among H. sapiens, M. musculus, R. norvegicus, M. fascicularis but not among the same species and L. glama. The relevance of residues conserved among human, mouse, rat, cynomolgus monkey but not llama MET for binding to agonistic mAbs was tested by ELISA. Wild-type (WT) or mutant (MT) human MET ECD was immobilized in solid phase and exposed to increasing concentrations of mAbs in solution. […] All binding values were normalized to the WT protein and are expressed as % binding (EMAX) compared to WT MET.

[12] = target: T2, native human MET on living cells; test: cell-based or functional assay; remark: listed apart in the source
[13] = target: T3, native mouse MET on living cells; test: cell-based or functional assay; remark: listed apart in the source
[14] = target: T2, native human MET on living cells; test: cell-based or functional assay; remark: listed apart in the source
[15] = target: T3, native mouse MET on living cells; test: cell-based or functional assay; remark: listed apart in the source
human MET ECD [16] = target: T5, human MET ECD; test: ELISA, MET ECD in solid phase, mAb 0-20 nM
Procedure, shortened: (§3)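 Chimeric llama-human IgG1 antibodies were expressed by transient transfection of mammalian cells and purified by protein A affinity chromatography. Their binding was then measured by ELISA against immobilized MET ECD, with antibody titrated in solution.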

mouse MET ECD = target: T6, mouse MET ECD (mouse, UniProt P16056 25-931); test: ELISA, MET ECD in solid phase, mAb 0-20 nM
T6 construct: range 1-931; recombinant ECD made by the applicants; the stated range begins at residue 1; also called mMET; mMET ECD
Procedure, shortened: as §3

[17] = target: T2, native human MET on living cells; test: cell-based or functional assay; remark: listed apart in the source
[18] = target: T3, native mouse MET on living cells; test: cell-based or functional assay; remark: listed apart in the source

T2 sequence (P08581 25-1390): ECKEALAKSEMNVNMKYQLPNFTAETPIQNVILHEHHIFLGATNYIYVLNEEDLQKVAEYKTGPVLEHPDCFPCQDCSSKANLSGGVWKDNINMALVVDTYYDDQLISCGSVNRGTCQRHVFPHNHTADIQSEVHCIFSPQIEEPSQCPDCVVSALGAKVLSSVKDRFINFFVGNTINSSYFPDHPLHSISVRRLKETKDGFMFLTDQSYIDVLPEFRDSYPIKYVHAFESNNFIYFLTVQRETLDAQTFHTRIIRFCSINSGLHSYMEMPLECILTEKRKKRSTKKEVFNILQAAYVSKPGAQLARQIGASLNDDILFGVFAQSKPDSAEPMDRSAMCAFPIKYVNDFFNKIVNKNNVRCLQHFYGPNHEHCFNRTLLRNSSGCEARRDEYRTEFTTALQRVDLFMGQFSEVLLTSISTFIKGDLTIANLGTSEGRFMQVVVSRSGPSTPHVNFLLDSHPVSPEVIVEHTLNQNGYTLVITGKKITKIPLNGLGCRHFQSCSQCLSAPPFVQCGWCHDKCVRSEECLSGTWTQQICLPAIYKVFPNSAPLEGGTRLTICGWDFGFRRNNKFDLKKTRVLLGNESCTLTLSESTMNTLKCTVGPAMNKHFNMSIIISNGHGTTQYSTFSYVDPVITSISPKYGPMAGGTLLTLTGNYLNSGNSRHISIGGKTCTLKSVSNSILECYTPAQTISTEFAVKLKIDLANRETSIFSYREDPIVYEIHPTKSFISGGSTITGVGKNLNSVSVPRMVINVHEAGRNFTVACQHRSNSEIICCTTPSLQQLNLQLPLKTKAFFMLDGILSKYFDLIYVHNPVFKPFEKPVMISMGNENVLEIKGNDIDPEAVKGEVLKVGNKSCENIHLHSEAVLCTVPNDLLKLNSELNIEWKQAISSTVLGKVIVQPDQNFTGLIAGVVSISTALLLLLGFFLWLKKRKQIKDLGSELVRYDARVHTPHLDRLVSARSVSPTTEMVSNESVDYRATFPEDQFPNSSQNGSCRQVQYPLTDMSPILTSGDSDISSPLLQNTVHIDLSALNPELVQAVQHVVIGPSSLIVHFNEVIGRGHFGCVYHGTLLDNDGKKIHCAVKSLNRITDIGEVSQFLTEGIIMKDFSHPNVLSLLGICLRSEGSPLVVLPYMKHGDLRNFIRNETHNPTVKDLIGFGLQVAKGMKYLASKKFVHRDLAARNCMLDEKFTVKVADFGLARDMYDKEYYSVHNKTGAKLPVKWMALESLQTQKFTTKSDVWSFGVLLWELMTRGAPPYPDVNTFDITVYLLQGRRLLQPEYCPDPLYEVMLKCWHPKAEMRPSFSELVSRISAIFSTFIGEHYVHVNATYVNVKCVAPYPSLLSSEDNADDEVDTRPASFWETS
T5 sequence (P08581 25-932 limits assumed, form in doubt): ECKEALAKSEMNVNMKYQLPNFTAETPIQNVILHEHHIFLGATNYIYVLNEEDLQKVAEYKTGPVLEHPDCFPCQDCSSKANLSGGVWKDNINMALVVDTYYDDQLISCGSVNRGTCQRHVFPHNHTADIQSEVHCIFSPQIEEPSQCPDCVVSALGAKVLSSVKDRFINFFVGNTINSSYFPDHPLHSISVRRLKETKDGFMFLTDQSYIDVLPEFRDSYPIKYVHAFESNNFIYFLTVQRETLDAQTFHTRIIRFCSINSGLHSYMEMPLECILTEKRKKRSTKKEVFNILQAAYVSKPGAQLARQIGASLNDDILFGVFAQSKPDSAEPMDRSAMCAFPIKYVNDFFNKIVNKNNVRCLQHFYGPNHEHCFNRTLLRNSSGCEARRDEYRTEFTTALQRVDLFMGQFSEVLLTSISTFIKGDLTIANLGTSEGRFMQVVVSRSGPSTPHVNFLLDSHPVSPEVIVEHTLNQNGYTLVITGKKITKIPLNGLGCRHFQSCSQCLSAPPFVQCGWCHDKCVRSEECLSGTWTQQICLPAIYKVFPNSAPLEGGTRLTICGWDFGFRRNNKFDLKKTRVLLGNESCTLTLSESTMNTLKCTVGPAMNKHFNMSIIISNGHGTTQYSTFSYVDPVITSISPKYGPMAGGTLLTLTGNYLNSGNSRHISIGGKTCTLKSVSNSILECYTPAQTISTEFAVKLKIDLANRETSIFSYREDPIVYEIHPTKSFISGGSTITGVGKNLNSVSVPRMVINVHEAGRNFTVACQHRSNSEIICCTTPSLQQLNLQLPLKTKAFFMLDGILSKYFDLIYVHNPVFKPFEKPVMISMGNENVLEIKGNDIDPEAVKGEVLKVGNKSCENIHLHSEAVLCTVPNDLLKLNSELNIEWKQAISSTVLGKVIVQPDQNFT
T1 sequence (P08581 25-932): as the sequence (P08581 25-932 limits assumed, form in doubt) above

B1: 71D6 chimeric llama-human IgG1 mAb (antibody, V domains shown)
VH: ELQLVESGGGLVQPGGSLRLSCAASGFTFSSYGMSWVRQAPGKGLEWVSAINSYGGSTSYADSVKGRFTISRDNAKNTLYLQMNSLKPEDTAVYYCAKEVRADLSRYNDYESYDYWGQGTQVTVSS
VL: QPVLNQPSALSVTLGQTAKITCQGGSLGARYAHWYQQKPGQAPVLVIYDDDSRPSGIPERFSGSSSGGTATLTISGAQAEDEGDYYCQSADSSGSVFGGGTHLTVL
notes: llama VH on human IgG1 CH1-CH2-CH3, llama VL on human lambda CL
IC50 [1]: 0.29 nM | IMAX [1]: 98.3% | protection from staurosporine, viability EC50, MCF10A cells [2]: 1.48 nM | protection from staurosporine, viability EMAX, MCF10A cells [2]: 66.8% | protection from staurosporine, viability EC50, MLP29 cells [3]: 0.95 nM | protection from staurosporine, viability EMAX, MLP29 cells [3]: 68.3% | EC50 [4]: 0.259 nM | EMAX [4]: 113 % relative to control | EC50 [5]: 0.383 nM | EMAX [5]: 121 % relative to control | IC50 [6]: 0.34 nM | IMAX [6]: 90.5% | % binding (EMAX) compared to WT MET [7]: 43.6 % WT MET ECD | % binding (EMAX) compared to WT MET [8]: 128 % WT MET ECD | % binding (EMAX) compared to WT MET [9]: 103 % WT MET ECD | % binding (EMAX) compared to WT MET [10]: 38.6 % WT MET ECD | % binding (EMAX) compared to WT MET (human MET ECD [11]): 100 % WT MET ECD | scatter score 0-4, HPAF-II, 0.001 nM [12]: 0 score | scatter score 0-4, HPAF-II, 0.004 nM [12]: 1 score | scatter score 0-4, HPAF-II, 0.012 nM [12]: 2 score | scatter score 0-4, HPAF-II, 0.037 nM [12]: 3 score | scatter score 0-4, HPAF-II, 0.111 nM [12]: 4 score | scatter score 0-4, HPAF-II, 0.333 nM [12]: 4 score | scatter score 0-4, HPAF-II, 1.000 nM [12]: 4 score | scatter score 0-4, HPAF-II, 3.000 nM [12]: 4 score | scatter score 0-4, HPAF-II, 9.000 nM [12]: 4 score | scatter score 0-4, MLP29, 0.001 nM [13]: 0 score | scatter score 0-4, MLP29, 0.004 nM [13]: 1 score | scatter score 0-4, MLP29, 0.012 nM [13]: 2 score | scatter score 0-4, MLP29, 0.037 nM [13]: 3 score | scatter score 0-4, MLP29, 0.111 nM [13]: 4 score | scatter score 0-4, MLP29, 0.333 nM [13]: 4 score | scatter score 0-4, MLP29, 1.000 nM [13]: 4 score | scatter score 0-4, MLP29, 3.000 nM [13]: 4 score | scatter score 0-4, MLP29, 9.000 nM [13]: 4 score | phospho-MET ELISA EC50, A549 cells [14]: 0.32 nM | phospho-MET ELISA EMAX (% HGF activity), A549 cells [14]: 102% | phospho-MET ELISA EC50, MLP29 cells [15]: 0.21 nM | phospho-MET ELISA EMAX (% HGF activity), MLP29 cells [15]: 115% | EC50 (human MET ECD [16]): 0.026 nM | EMAX (OD450) (human MET ECD [16]): 2.08 AU | EC50 (mouse MET ECD): 0.049 nM | EMAX (OD450) (mouse MET ECD): 2.01 AU | branches per spheroid, LOC cells, 0.5 nM [17]: 29 branches | branches per spheroid, LOC cells, 2.5 nM [17]: 29 branches | branches per spheroid, LOC cells, 12.5 nM [17]: 32.7 branches | branches per spheroid, MLP29 cells, 0.5 nM [18]: 32.7 branches | branches per spheroid, MLP29 cells, 2.5 nM [18]: 39 branches | branches per spheroid, MLP29 cells, 12.5 nM [18]: 41.3 branches

B2: 71C3 chimeric llama-human IgG1 mAb (antibody, V domains shown)
VH: QLQLVESGGGLVQPGGSLRLSCAASGFTFSSHAMSWVRQAPGKGLEWVSAINSGGGSTSYADSVKGRFTISRDNAKNTLYLQMNSLKPEDTAVYYCAKELRFDLARYTDYEAWDYWGQGTQVTVSS
VL: SYELTQPSALSVTLGQTAKITCQGGSLGSSYAHWYQQKPGQAPVLVIYDDDSRPSGIPERFSGSSSGGTATLTISGAQAEDEGDYYCQSADSSGNAAVFGGGTHLTVL
notes: as for B1
IC50 [1]: 1.42 nM | IMAX [1]: 93.6% | protection from staurosporine, viability EC50, MCF10A cells [2]: 31.9 nM | protection from staurosporine, viability EMAX, MCF10A cells [2]: 50.2% | protection from staurosporine, viability EC50, MLP29 cells [3]: 31 nM | protection from staurosporine, viability EMAX, MLP29 cells [3]: 51.3% | EC50 [4]: 0.572 nM | EMAX [4]: 106 % relative to control | EC50 [5]: 0.585 nM | EMAX [5]: 115 % relative to control | IC50 [6]: 1.56 nM | IMAX [6]: 89.2% | % binding (EMAX) compared to WT MET [7]: 59.6 % WT MET ECD | % binding (EMAX) compared to WT MET [8]: 102 % WT MET ECD | % binding (EMAX) compared to WT MET [9]: 99.8 % WT MET ECD | % binding (EMAX) compared to WT MET [10]: 61.6 % WT MET ECD | % binding (EMAX) compared to WT MET (human MET ECD [11]): 100 % WT MET ECD | scatter score 0-4, HPAF-II, 0.001 nM [12]: 0 score | scatter score 0-4, HPAF-II, 0.004 nM [12]: 0 score | scatter score 0-4, HPAF-II, 0.012 nM [12]: 0 score | scatter score 0-4, HPAF-II, 0.037 nM [12]: 0 score | scatter score 0-4, HPAF-II, 0.111 nM [12]: 1 score | scatter score 0-4, HPAF-II, 0.333 nM [12]: 2 score | scatter score 0-4, HPAF-II, 1.000 nM [12]: 3 score | scatter score 0-4, HPAF-II, 3.000 nM [12]: 4 score | scatter score 0-4, HPAF-II, 9.000 nM [12]: 4 score | scatter score 0-4, MLP29, 0.001 nM [13]: 0 score | scatter score 0-4, MLP29, 0.004 nM [13]: 0 score | scatter score 0-4, MLP29, 0.012 nM [13]: 0 score | scatter score 0-4, MLP29, 0.037 nM [13]: 0 score | scatter score 0-4, MLP29, 0.111 nM [13]: 1 score | scatter score 0-4, MLP29, 0.333 nM [13]: 2 score | scatter score 0-4, MLP29, 1.000 nM [13]: 3 score | scatter score 0-4, MLP29, 3.000 nM [13]: 4 score | scatter score 0-4, MLP29, 9.000 nM [13]: 4 score | phospho-MET ELISA EC50, A549 cells [14]: 0.35 nM | phospho-MET ELISA EMAX (% HGF activity), A549 cells [14]: 86.2% | phospho-MET ELISA EC50, MLP29 cells [15]: 0.33 nM | phospho-MET ELISA EMAX (% HGF activity), MLP29 cells [15]: 98.8% | EC50 (human MET ECD [16]): 0.203 nM | EMAX (OD450) (human MET ECD [16]): 2.46 AU | EC50 (mouse MET ECD): 0.293 nM | EMAX (OD450) (mouse MET ECD): 2.24 AU | branches per spheroid, LOC cells, 0.5 nM [17]: 8.7 branches | branches per spheroid, LOC cells, 2.5 nM [17]: 12.7 branches | branches per spheroid, LOC cells, 12.5 nM [17]: 15.7 branches | branches per spheroid, MLP29 cells, 0.5 nM [18]: 11.7 branches | branches per spheroid, MLP29 cells, 2.5 nM [18]: 15.7 branches | branches per spheroid, MLP29 cells, 12.5 nM [18]: 24.7 branches
